Measurements from US20250382355A1 (Merck Sharp & Dohme, published 2025).

How the values were obtained:
[1] = target: T1, SARS-CoV-2 prefusion-stabilized spike protein (SARS-CoV-2-PreS) (SARS-CoV-2, UniProt P0DTC2 14-1208); test: Biacore, apparent affinity
[2] = target: T1, SARS-CoV-2 prefusion-stabilized spike …; test: ELISA
[3] = target: T2, Biotinylated CoV2 Spike ECD PreS-AVI protein (SARS-CoV-2, UniProt P0DTC2 14-1208); test: Octet binning; competitor 19B8
[4] = target: T2, Biotinylated CoV2 Spike ECD PreS-AVI …; test: Octet binning; competitor 20D11
[5] = target: SARS-CoV-2 Omicron spike on pseudovirus (SARS-CoV-2); test: cell-based or functional assay
[6] = target: T2, Biotinylated CoV2 Spike ECD PreS-AVI …; test: Octet binning; competitor 15H1
[7] = target: T2, Biotinylated CoV2 Spike ECD PreS-AVI …; test: Octet binning; competitor 1A11
[8] = target: T2, Biotinylated CoV2 Spike ECD PreS-AVI …; test: Octet binning; competitor Std-B
[9] = target: T2, Biotinylated CoV2 Spike ECD PreS-AVI …; test: Octet binning; competitor 9B2
[10] = target: T2, Biotinylated CoV2 Spike ECD PreS-AVI …; test: Octet binning; competitor 7A9
[11] = target: T2, Biotinylated CoV2 Spike ECD PreS-AVI …; test: Octet binning; competitor 8E9
[12] = target: T2, Biotinylated CoV2 Spike ECD PreS-AVI …; test: Octet binning; competitor Std-D
[13] = target: SARS-CoV-2 Gamma P.1 spike on pseudovirus (SARS-CoV-2); test: cell-based or functional assay
[14] = target: SARS-CoV-2 Alpha B.1.1.7 spike on pseudovirus (SARS-CoV-2); test: cell-based or functional assay
[15] = target: SARS-CoV-2 Beta B.1.351 spike on pseudovirus (SARS-CoV-2); test: cell-based or functional assay
[16] = target: T2, Biotinylated CoV2 Spike ECD PreS-AVI …; test: Octet binning; competitor 13C8
[17] = target: T2, Biotinylated CoV2 Spike ECD PreS-AVI …; test: Octet binning; competitor Std-A
[18] = target: T2, Biotinylated CoV2 Spike ECD PreS-AVI …; test: Octet binning; competitor 11F8
[19] = target: T2, Biotinylated CoV2 Spike ECD PreS-AVI …; test: Octet binning; competitor 15H7

Binder	Kd [1] [nM]	EC50 [2] [nM]	binning response [3]	binning response [4]	other results
6A1 VHH-Fc (Fc fusion) QVQLVESGGGLVQAGGSLRLSCTASGNIFSVNVMGWHRQAPGKRRELVAALTNDGRRNYADSVKGRFTISRDNAKNTIYLEMNSLKPEDTAVYYCGTGTLESGFNSWGQGLQVTVSS	1.6	0.44	0.4	0.37	–
11F5 VHH-Fc (Fc fusion) QVQLVESGGGAVQAGDSLRLSCTASGRTFSTYAVGWFRQAPGKERELLAAITGSGRNPYYPDSLKGRFTISREYAKLPVYLQMNSLKPEDTAVYYCAARRGAIATMPLDYDHWGQGTQVTVSS	< 0.2	0.12	0.52	0.1	–
19B8 VHH-Fc (Fc fusion) QVQLVESGGGLVQAGGSLRLSCAASGRTFTNYAMGWFRQAPGKEREFVAAISWSGGGTNYADSVKGRFTISRDNAKNTVYLQMNSPKPEDTAVYYCATTLGYYGSSSRLYEYWGQGTQVTVSS	1.1	0.06	0.08	0.48	pseudovirus neutralization IC50 [5]: 47 nM
16H7 VHH-Fc (Fc fusion) QVQLVESGGGLVQAGGSLRLSCAASGRAFSKDTMGWFRQAPGKEREFVAVISASGDSTYYADFVKGRFTISRDNAKNTEYLQMNSLKPEDTAVYHCAADGARAYYSINAHRYSWAYNYWGQGTQVTVSS	3	0.08	0.19	0.56	–
10B8 VHH-Fc (Fc fusion) QVQLVESGGGLVQPGGSLRLSCAASGITLDYYAIAWFRQAPGKEREGVSCFCSSDGDIRYADSVKGRFTISRDNAKNTVYLQMNSLKPEDTAVYYCATERVYSSTWFFHRYSELDFGSWGRGTQVTVSS	< 0.2	1.35	–	–	binning response [6]: 0.12; binning response [7]: 0.1; binning response [8]: 0.36; binning response [9]: 0.12; binning response [10]: 0.42; binning response [11]: 0.09; binning response [12]: 0.05; pseudovirus neutralization IC50 [13]: 0.21 nM; pseudovirus neutralization IC50 [14]: 0.38 nM; pseudovirus neutralization IC50 [5]: 4.1 nM; pseudovirus neutralization IC50 [15]: 0.23 nM; binning response [16]: 0.12; binning response [17]: 0.39; binning response [18]: 0.1; binning response [19]: 0.12
20D11 VHH-Fc (Fc fusion) QVQLVESGGGLVQAGGSLRLSCAASGRTSSIYSVGWFRQAPGKERELVAGITWSGGTTYYSDSVKGRFTISRDNAKNTVNLQMNNLKPEDTAIYYCAVDRYSMTMSARDYDYWGQGTQVTVSS	< 0.2	0.62	0.43	0.04	–
5G11 VHH-Fc (Fc fusion) QVQLVESGGGLVQAGGSLRLSCAASGRTFSIYAVGWFRQAPGKERDFVAGITWSGGTTYYSDSVKGRFTISRDNAKNTVYLQMNNLKPEDTAIYYCAVDTYSMTLSARSYDYWGQGTQVTVSS	1.5	0.4	0.4	0.05	–
14F3 VHH-Fc (Fc fusion) QVQLVESGGGLVQAGGSLRLSCAASGRTSSIYGVGWFRQAPGKERELVALITWSGGTTYYSDSVKGRFTISKDNAKNTVFLQMNNLKPEDTAIYYCAVDTYSMTMSARDYEYWGQGTQVTVSS	< 0.2	0.05	0.46	0.04	–
